Results on one molecule are retold here after PMC5847526 (2018).

This experiment has as its target Lumi4-Tb-SNAP-FLT3 on HEK293 cells (UniProt P36888 27-993, Lumi4-Tb on the SNAP tag). Briefly: FRET.

The term IC50 denotes the concentration needed to halve the response being measured. A low value points to greater potency.

Sequence of Lumi4-Tb-SNAP-FLT3 on HEK293 cells (P36888 27-993): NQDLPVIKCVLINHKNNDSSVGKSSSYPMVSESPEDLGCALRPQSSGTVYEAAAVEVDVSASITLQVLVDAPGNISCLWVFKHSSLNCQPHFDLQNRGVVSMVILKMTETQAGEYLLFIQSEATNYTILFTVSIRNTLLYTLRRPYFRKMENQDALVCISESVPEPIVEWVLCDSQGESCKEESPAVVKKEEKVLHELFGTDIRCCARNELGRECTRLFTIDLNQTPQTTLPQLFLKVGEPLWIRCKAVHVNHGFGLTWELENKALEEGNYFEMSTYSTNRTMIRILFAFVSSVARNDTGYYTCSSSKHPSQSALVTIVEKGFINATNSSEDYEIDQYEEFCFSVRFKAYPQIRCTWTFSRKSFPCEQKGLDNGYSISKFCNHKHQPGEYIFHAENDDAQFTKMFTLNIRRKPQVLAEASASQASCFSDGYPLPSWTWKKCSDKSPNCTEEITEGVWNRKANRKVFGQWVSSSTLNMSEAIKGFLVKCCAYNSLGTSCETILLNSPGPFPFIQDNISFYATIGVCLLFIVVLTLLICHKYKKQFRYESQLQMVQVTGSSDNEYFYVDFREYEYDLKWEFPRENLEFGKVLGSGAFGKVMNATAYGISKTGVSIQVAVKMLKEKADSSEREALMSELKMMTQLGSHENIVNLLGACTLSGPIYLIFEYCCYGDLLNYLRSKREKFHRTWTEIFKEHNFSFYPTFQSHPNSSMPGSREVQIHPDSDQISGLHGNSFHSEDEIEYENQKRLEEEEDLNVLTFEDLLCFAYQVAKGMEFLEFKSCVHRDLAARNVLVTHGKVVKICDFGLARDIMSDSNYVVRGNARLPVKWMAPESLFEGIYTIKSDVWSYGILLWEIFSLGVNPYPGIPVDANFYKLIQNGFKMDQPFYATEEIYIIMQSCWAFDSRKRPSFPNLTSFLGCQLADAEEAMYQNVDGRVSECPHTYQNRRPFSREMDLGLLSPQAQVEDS

B1: human recombinant FL (rh-FLT3-L), labelled as Red-FL (ligand)
chain: TQDCSFQHSPISSDFAVKIRELSDYLLQDYPVTVASNLQDEELCGGLWRLVLAQRWMERLKTVAGSKMQGLLERVNTEIHFVTKCAFQPPPSCLRFVQTNISRLLQETSEQLVALKPWITRQNFSRCLELQCQPDSSTLPPPWSPRPLEATAPTAPQPPLLLLLLLPVGLLLLAAAWCLHWQRTRRRTPRPGEQVPPVPSPQDLLLVEH
modifications: red fluorophore (Red-FL), position not stated
B1 showed an IC50 of 0.57 nM.
